Among the data in paper PMC6626918 (Frontiers in Microbiology, 2019) are Km and Km of AhpC peroxidase activity for TrxC (NADPH consumption values, retold here.

The target in one assay is T1, AhpC (BthAhpC) (Burkholderia thailandensis, UniProt Q2SWT3).
T1 construct: gene BTH_I2092
The conditions noted are these: read-out: Systems / AhpD / Km.

Assay [1] addresses Alkyl hydroperoxide reductase subunit C (AhpC) of Burkholderia thailandensis E264, GST-tagged (Burkholderia thailandensis E264) (UniProt Q2SWT3).

Take `CC(C)(C)OO` [t-BOOH]: on AhpC (BthAhpC), the Km worked out at 60.1 ± 1.8 µM.
Turning to `CC(C)(OO)c1ccccc1` [CHP], the Km at AhpC (BthAhpC) turned out to be 57.6 ± 1.2 µM.
As to “Thioredoxin C (TrxC) of Burkholderia thailandensis E264 (enzyme)”, in assay [1], the Km of AhpC peroxidase activity for TrxC (NADPH consumption at 340 nm; TrxC varied 0-500 μM, 1 μM AhpC, 1 mM CHP, TrxR system) was determined as 147 µM; the Km of AhpC peroxidase activity for TrxC (NADPH consumption at 340 nm; TrxC varied 0-500 μM, 1 μM AhpC, 1 mM H2O2, TrxR system) is 348 µM; the Km of AhpC peroxidase activity for TrxC (NADPH consumption at 340 nm; TrxC varied 0-500 μM, 1 μM AhpC, 1 mM t-BOOH, TrxR system) turned out to be 202 µM.
